The source of these data is patent publication EP4628097A1 (Innovent Biologics (Suzhou) Co., Ltd., dated 2025).

Test [1] deals with Tie2-Fc (Beijing Sino Biological, Catalog No. 10700-H03H) (UniProt Q02763). Kind of test: ELISA: biotin-Ang2 (0.2 ug/mL) on coated Tie2-Fc, no antibody (blank of the blocking assay).
Another test concerns the target T1, human VEGF165 (human, UniProt P15692-4 27-191).
T1 construct: all are put under this molecule; also called VEGF A; VEGFA
Description: BLI (ForteBio), bivalent binding; * exceeds ForteBio detection limit.

The target of a further test is T2, human Ang2 (human, UniProt O15123 19-496, limits assumed).
T2 construct: Bought proteins; also called hAng2-biotin; Ang2-Bio (Sino)
T2 sequence (looked up): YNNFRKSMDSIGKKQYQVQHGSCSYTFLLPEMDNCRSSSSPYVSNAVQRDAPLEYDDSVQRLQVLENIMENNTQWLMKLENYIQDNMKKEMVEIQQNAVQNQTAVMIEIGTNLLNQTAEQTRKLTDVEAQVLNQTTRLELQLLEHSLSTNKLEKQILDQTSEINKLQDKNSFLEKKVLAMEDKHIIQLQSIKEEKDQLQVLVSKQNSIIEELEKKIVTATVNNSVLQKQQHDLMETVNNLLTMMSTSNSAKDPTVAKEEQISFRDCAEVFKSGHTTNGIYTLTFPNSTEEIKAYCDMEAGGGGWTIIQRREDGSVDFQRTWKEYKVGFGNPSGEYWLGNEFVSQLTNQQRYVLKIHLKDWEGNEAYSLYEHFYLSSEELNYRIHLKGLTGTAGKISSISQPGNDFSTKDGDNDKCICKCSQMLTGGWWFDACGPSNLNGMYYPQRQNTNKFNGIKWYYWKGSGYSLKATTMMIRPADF
Description: blocking ELISA: biotinylated hAng2 on coated hTie2, antibody titrated from 300 nM. Background: In an ELISA, binding on a coated surface is turned into a signal by an enzyme label.

Tie2-Fc (Beijing Sino Biological, Catalog No. 10700-H03H), sequence (Q02763 23-745 limits assumed): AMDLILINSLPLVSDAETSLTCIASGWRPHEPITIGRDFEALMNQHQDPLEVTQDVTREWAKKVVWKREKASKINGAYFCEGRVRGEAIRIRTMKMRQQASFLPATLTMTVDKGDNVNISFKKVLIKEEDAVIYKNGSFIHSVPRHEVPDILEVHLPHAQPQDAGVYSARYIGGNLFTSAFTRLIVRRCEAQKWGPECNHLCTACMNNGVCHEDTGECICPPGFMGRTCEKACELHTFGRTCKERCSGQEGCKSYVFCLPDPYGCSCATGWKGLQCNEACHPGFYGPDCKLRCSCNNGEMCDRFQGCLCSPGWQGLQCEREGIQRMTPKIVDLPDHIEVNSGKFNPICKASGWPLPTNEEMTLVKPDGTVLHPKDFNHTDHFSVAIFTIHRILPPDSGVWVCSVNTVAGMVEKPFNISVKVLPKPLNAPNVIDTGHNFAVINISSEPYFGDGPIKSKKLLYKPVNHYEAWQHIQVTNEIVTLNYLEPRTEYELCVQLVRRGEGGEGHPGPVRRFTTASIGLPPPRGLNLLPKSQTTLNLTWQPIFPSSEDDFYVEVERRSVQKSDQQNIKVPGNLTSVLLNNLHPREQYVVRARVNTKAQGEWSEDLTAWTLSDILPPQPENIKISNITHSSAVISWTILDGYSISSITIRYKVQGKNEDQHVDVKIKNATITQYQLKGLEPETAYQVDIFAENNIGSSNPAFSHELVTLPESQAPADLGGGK
T1 sequence (P15692 other isoform, or with tags, fused parts or gaps limits assumed): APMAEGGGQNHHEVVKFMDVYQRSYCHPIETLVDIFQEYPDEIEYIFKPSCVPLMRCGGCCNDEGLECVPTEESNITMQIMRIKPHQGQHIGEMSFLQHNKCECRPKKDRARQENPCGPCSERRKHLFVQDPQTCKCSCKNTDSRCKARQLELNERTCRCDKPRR

In test [1], “human Ang2 (from UniProt O15123 19-496) (ligand)” came in with an OD450nm of 3.45 OD450nm.

B1: LA46E11 (VHH)
VHH: QVQLEESGGGLVQPGGSLRLSCVASGSIFSINAMGWHRQAPGSQRELVATMIGGSSTFYADSVNGRFTISRDNAKNTVYLQMNSLKLEDTAVYYCYADVTGRSGTSIWNKRDDYWGQGTLVTVSS
notes: Alpaca immune-library VHH; also called LA46E11 (VEGFA VHH); anti-VEGF A VHH antibody
As for B1, the off-rate constant (koff) (in general, the first-order rate constant of dissociation) with human VEGF165 is at most 0.0002 s⁻¹.

B2: IEX04-008 (bispecific antibody)
chain: EVQLLESGGGLVQPGGSLRLSCAASGSIFSINAMGWHRQAPGKQRELVATMIGGSSTFYAESVQGRFTISRDNSKNTVYLQMNSLRAEDTAVYYCYADVTGRSGTSIWNKRDDYWGQGTQVTVSSGGGGSGGGGSEVQLLESGGGLVQPGGSLRLSCAASGSIFSINAMGWHRQAPGKQRELVATMIGGSSTFYAESVQGRFTISRDNSKNTVYLQMNSLRAEDTAVYYCYADVTGRSGTSIWNKRDDYWGQGTQVTVSSGGGGSGGGGSEVQLLESGGGLVQPGGSLRLSCAASGFALDYYAIGWFRQAPGKGLEGVSCISSGEGSTYYADSVKGRFTISRDNSKNTVYLQMNSLRAEDTAVYYCATDSRGDDVACEGLRRNEYDYWGQGTLVTVSS
notes: expressed in 293 cells; also called LA46E11.8 (VHH) + linker + LA46E11.8 (VHH) + LA24C11.10
For the molecule B2, the binding result in the test with human Ang2 is “binds”.
